Assay results published in patent US20050191626, “Method for forming a stable complex comprising a transcription product and translation product of a dna encoding a desired polypeptide, a nucleic acid construct used for the method, a complex formed by the method, and screening of a functional protein and mrna or dna encoding the protein using the …” (published 2005).

T1: DHFR-(RE)2 (DHFR fused to two tandem Tat-derived RE peptides) (UniProt P04608)
T1 sequence: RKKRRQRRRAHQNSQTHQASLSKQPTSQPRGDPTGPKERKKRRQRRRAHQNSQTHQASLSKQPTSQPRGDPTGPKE

T2: DHFR-(RE)3 (DHFR fused to three tandem Tat-derived RE peptides) (UniProt P04608)
T2 sequence: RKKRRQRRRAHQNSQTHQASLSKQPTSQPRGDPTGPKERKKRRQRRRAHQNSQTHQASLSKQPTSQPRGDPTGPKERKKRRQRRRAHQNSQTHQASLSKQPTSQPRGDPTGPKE

T3: DHFR-(RE)1 (DHFR fused to one HIV Tat-derived RE peptide) (UniProt P04608)
T3 sequence: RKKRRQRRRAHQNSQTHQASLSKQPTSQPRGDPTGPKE

B1: (Apt)3 three tandem Tat aptamers via A6 linkers (ssRNA)
RNA: AAAAAACGAAGCUUGAUCCCGUUUGCCGGUCGAUCGCUUCGAAAAAACGAAGCUUGAUCCCGUUUGCCGGUCGAUCGCUUCGAAAAAACGAAGCUUGAUCCCGUUUGCCGGUCGAUCGCUUCG
B2: (Apt)2 two tandem Tat aptamers via A6 linker (ssRNA)
RNA: AAAAAACGAAGCUUGAUCCCGUUUGCCGGUCGAUCGCUUCGAAAAAACGAAGCUUGAUCCCGUUUGCCGGUCGAUCGCUUCG

Columns and labels:
[1] = target: T1, DHFR-(RE)2 (DHFR fused to two tandem Tat-derived RE peptides); assay: EMSA; settings: apparent Kd; 10 mM Tris-HCl pH 8.0, 70 mM NaCl, 2 mM EDTA, 0.1% NP-40, 40 nM tRNA, 30 C
[2] = target: T2, DHFR-(RE)3 (DHFR fused to three tandem Tat-derived RE peptides); assay: EMSA; settings: apparent Kd; 10 mM Tris-HCl pH 8.0, 70 mM NaCl, 2 mM EDTA, 0.1% NP-40, 40 nM tRNA, 30 C
[3] = target: T3, DHFR-(RE)1 (DHFR fused to one HIV Tat-derived RE peptide); assay: EMSA; settings: apparent Kd; 10 mM Tris-HCl pH 8.0, 70 mM NaCl, 2 mM EDTA, 0.1% NP-40, 40 nM tRNA, 30 C
[4] = target: dihydrofolate reductase (DHFR), wild type (UniProt P0ABQ4 P0ABQ4:1-159); assay: EMSA; no mobility change with increasing wild-type DHFR; settings: tags: poly-His (pET30a); label: 5'-32P

Molecule | binding result [4] | other results
AAAAAACGAAGCUUGAUCCCGUUUGCCGGUCGAUCGCUUCGAAAAAACGAAGCUUGAUCCCGUUUGCCGGUCGAUCGCUUCG [(Apt)2 two tandem Tat aptamers via A6 linker] |  | Kd [1]: < 0.2 nM
AAAAAACGAAGCUUGAUCCCGUUUGCCGGUCGAUCGCUUCGAAAAAACGAAGCUUGAUCCCGUUUGCCGGUCGAUCGCUUCGAAAAAACGAAGCUUGAUCCCGUUUGCCGGUCGAUCGCUUCG [(Apt)3 three tandem Tat aptamers via A6 linkers] |  | Kd [2]: < 0.016 nM
AAAAAACGAAGCUUGAUCCCGUUUGCCGGUCGAUCGCUUCG [(Apt)1 Tat aptamer] |  | Kd [3]: < 24 nM
B1 | no binding | 
AAAAAACGAAGCUUGAUCCCGUUUGCCGGUCGAUCGCUUCG (ssRNA) [(Apt)1 Tat aptamer] | no binding | 
B2 | no binding | 
